We go through one molecule from patent US8728787B2, “Fungal laccases and uses thereof” (Academia Sinica, priority 2010, dated 2014).

Data set [1] can be described thus: Thermal stability: residual enzymatic activity after pre-incubation (t1/2). Type of data set: physicochemical. Conditions: for t1/2: 50 mM citric acid buffer pH 3.0. As to the method: (§1) The effect of temperature on laccase activity was studied using the standard enzymatic activity assay described above under various reaction temperatures (i.e., 20-80° C.). For thermal stability study, the enzyme was pre-incubated in a 50 mM citric acid buffer (pH 3.0) at 50-80° C. for 0-180 min and the residual enzymatic activity was then determined.
To test thermal stability, the enzyme was kept at various temperatures (50-80° C.) for 10-40 min and the remaining enzymatic activity was determined using the standard activity assay.
(§2) To determine the effect of temperature on the enzyme activity, a standard enzymatic activity assay was performed under various temperatures (i.e., 30-90° C.). For thermal stability study, laccase was pre-incubated in a 50 mM citric acid buffer (pH 3.0) at 30-80° C. for 10-40 min and the residual enzymatic activity was then determined by the standard assay. See Example 1 above. Values of t1/2 were determined accordingly.

Data set [2] can be described thus: Guaiacol oxidation (laccase kinetics, optimum temperature and pH). Type of data set: biochemical. To be noted: guaiacol as substrate. How it is done:
as §1
The effect of pH on the laccase activity was investigated at a pH range of 2.5-6.0. Four buffer systems were used in this study: 50 mM glycine-HCl buffer (pH 2.5), 50 mM citric acid buffer (pH 3.0-5.5), 50 mM sodium phosphate buffer (pH 6.0-8.0), and 50 mM glycine-NaOH buffer (pH 9.0-10). To determine the protein stability of laccase at a wide range of pH conditions, the enzyme (0.1 mg/mL in each reaction) was pre-incubated at pH 3.0-10 at 25° C. for 0-5 days and then the residual enzyme activity was determined.
Kinetic parameters Km and Vmax were determined as follows. […] The oxidation reactions of guaiacol and 2,6-DMP were monitored by determining OD436 values (ε=6,400 M^−1cm^−1) and OD468 values (ε=49,600 M^−1 cm^−1), respectively. The kinetic parameters were determined by nonlinear regression analysis (ENZFITTER software program, Elsevier-Biosoft, Cambridge, UK) using the Michaelis-Menten model.
as §2
The effect of pH on laccase activity was investigated at pH 2.0-6.0, using a glycine-HCl buffer (pH 2.0-2.5) or a citric acid buffer (pH 2.5-6.0). To determine protein stability in different pH conditions, the enzyme was pre-incubated at pH 2.5-4.5 at 25° C. for 0-2 h and the residual enzyme activity was determined by the standard enzymatic assay.
Kinetic parameters were determined following conventional methods. See also Example 1 above.

A short description of data set [3]: Laccase activity in culture media of recombinant P. pastoris. The data set is classed as biochemical. Conditions: expressed in P. pastoris X-33; 13-26 day (Lcc1-3) or 18-day (LccA) cultivation. The text has this:
The EasySelect™ Pichia Expression System (Invitrogen) was used in this study for expression of Lcc1, Lcc2, and Lcc3 laccases. cDNA fragments coding for these three laccases were cloned into Pichia expression vector pPICZA or pPICZaB via EcoRI and NotI restriction sites. More specifically, the lcc1 gene coding for Lcc1 precursor (including a signal peptide sequence) was cloned into pPICA to generate expression plasmid pPICZA-lcc1 and the lcc2 and lcc3 genes coding for mature Lcc2 and Lcc3 were cloned into pPICZaB to obtain expression plasmids pPICZaB-lcc2 and pPICZaB-lcc3, respectively. The three expression plasmids were introduced into P. pastoris X-33 cells following the method described in Invitrogen's protocol. Positive transformants were cultured in BMMY (1% yeast extract, 2% peptone, 100 mM potassium phosphate, pH 6.0, 1.34% yeast nitrogen base, 0.00004% biotin, and 0.5% methanol) at 25° C., 200 rpm for 12-26 days. Methanol was added to the culture media daily to reach a final concentration of 0.5%. During the cultivation, 1 ml of the supernatant was collected at various time points. The laccase activity and cell density in the supernatant were determined following the method described above or routine procedures.
pPICZ-lccA was introduced into Pichia pastoris strain X-33 host cells (Invitrogen) and positive transformants were selected for LccA expression. Briefly, a positive transformant was cultured in BMMY medium containing 1% yeast extract, 2% peptone, 1.34% yeast nitrogen base, 0.00004% biotin, and 0.5% methanol at 25° C. and 200 rpm for 20 days. Methanol was daily added to reach a final concentration of 0.5%. Within the 20-day cultivation, 1 ml of the supernatant was collected; laccase activity and cell growth were determined.

The nature of data set [4]: Thermal denaturation by differential scanning calorimetry (DSC). Conditions: 10 mM sodium phosphate buffer (pH 6.0). The data set is classed as physicochemical. As to the method:
Thermal denaturation of laccase was determined by differential scanning calorimetry (DSC) using a Nano Differential Scanning calorimeter (N-DSC III) (TA Instruments, New Castle, Del.) at a heating rate of 1° C./min under a temperature from 30 to 95° C. and excess pressure of 3.0 atm. The protein concentration was 0.55 mg/ml in 10 mM sodium phosphate buffer (pH 6.0). Baseline corrections were performed and smoothed by subtracting a buffer thermogram. The data were then analyzed using the Launch NanoAnalyze Software (TA Instruments, New Castle, Del.), assuming a two-state unfolding model. See Pace et al., The Protein Structure: A Practical Approach; Creighton T. E., Ed.: IRL Press; Oxford U.K., pp. 311-330; 1989.
For orientation: In DSC, transitions show as peaks or steps in heat flow.

B1: Lcc3: laccase purified from Cerrena sp. WR1, GenBank accession no. GQ899203; SEQ ID NO:3 mature, 9 precursor (protein)
chain: AIGPVADLHITDANVSPDGFTRPAVLAGGTFPGPLITGKQGDNFQINVIDELTDATMLKSTSIHWHGIFQKGTNWADGPSFVNQCPITTGNSFLYDFSVPDQTGTYWYHSHLSTQYCDGLRGALVIYDDNDPHKDLYDVDDETTVITLADWYHTQARLITGVPVSDATLINGLGRYLNGPTDAPLAVITVDQGKRYRFRLVSISCDPNFVFSIDNHSMTVIEVDAVNSQPLVVDSIQIFAAQRYSFILNANQSVGNYWIRANPNLGNTGFTNGINSAILRYNGAPVAEPNTTQTASTNPLNEVNLHPLVPTPVPGTPQPGGVDVVQNLVLGFSGGKFTINGVAFSPPTVPVLLQILSGTTTAQDLLPTGSIIELPLGKTVELTLAAGVLGGPHPFHLHGHTFHVVRSAGQTTPNYVDPILRDTVNTGAAGDNVTIRFTTDNPGPWFLHCHIDWHLEAGFAVVFAEGLNQTNAANPTPDAWNNLCDLYNALPAGDQ
modifications: Cerrena sp
As for B1, the “t1/2 at room temperature” value in data set [1] (25° C., 50 mM sodium phosphate buffer (pH 6.0)) came to 40 days. Also, the t1/2 is reported as 120 min in data set [1] (at 50° C.); 40 min in data set [1] (at 60° C.); 7.5 min in data set [1] (at 70° C.); 8 min in data set [1] (at 70° C., listed as Cerrena sp. WR1). This molecule registered an optimal temperature in data set [2] of 70 °C. Moreover, the “pH of maximal activity” value in data set [2] is 4.5. For the same molecule, the Optimum temperature in data set [2] (at pH 4.5) was 70 (at pH 4.5) ° C. In data set [2] (optimum temperature and pH), this molecule gave a Specific activity of 189.7 U/mg. In data set [3], the “laccase activity in culture media” value was about 3700 U/L. Moreover, in data set [4], the “midpoint temperature (Tm)” value turned out to be 73.95 °C.
